The domain aggregation screens of Martell et al. (2025)

Test: soluble fraction after stress (log2 fold change); higher = more stays soluble; pooled small domains, quantitative proteomics
Settings: stress: 50 degC
Method in brief: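 Quantitative proteomics served as the high-throughput read-out for pooled custom libraries of small protein domains. Each was stressed at 50°C. Aggregation propensity is expressed as the base-two log fold change in soluble protein after stress. A higher value means a larger share of the protein remains in solution.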

HMYKSSRASKSEVNKFLKFIIQSLDKRGFLQPGHKRQSMIRNIENIFYRTNLSDQEIRILLGIFSTLNK
soluble fraction (log2): -0.62

HMDRENNITAGREILEKELSRLALNMKMVNLQDYAARFNVKHSDDILAGIGAGDIRPAHIVNAIAEKLT
soluble fraction (log2): 0.144

HMLKAKKIPVSDLEKFKGIVAEDVVSKAKALILPRGSNLSWLSNVAKKNLIAKLKAEGIEYISVYSS
soluble fraction (log2): 0.134

HMLAVPADFAEKLQSLRSQLASDDLDASDAFGRLQPFIKALYPAQLEALRKAVDDFDFVEATRLIDQLPQ
soluble fraction (log2): -0.232

HMDSNFNYELVGFRLDDMGLNSSVIVKRNNQEFVIQKGDLLENKYLLNSVTKKNINFSYLGKNYQI
soluble fraction (log2): -0.789

HMTMQTAEQESRLEQKLIDLSVGIDRFEGYSRPHGQLIASIADRIGTRLGMAAHDRFYMQQAAL
soluble fraction (log2): 0.107

HMDQVLHQLVEVLRRSEIRISPAETLDAFKVLRNVGIDNKSLLREALALTLAKSIHEKIIFYETFDEFFT
soluble fraction (log2): -1.16

HMVANDQILNQYGISDREAEIIGLLIEGLSNQQIAKQLYISPNTVKTHIKNIYAKVGVNNRLQLFSLLK
soluble fraction (log2): -0.173

HMHPVEPDDPDQHILFQHLRGQDQVHIDALIRLSGWTADKVSSTLLFMELQGLVKQLPGMYYALE
soluble fraction (log2): -0.0844

HMADLNQTDIDSITKSVGGVEQYKSLMDWAGKTLSQDAIDSFDDLVNTGNKGSIQLAVNGLVAQYQNDN
soluble fraction (log2): 0.0325

HMQIVHKHLQLQPDQGALRAALYSHKAVVAEQVNEQGAINLEIKLAESDFLRLLKSSGLKLQDLVSLS
soluble fraction (log2): -0.205

HMGGEEINMINLVGLSQSEAENQLAKLKLKIGQVTAEYSDKPSGTVLKQSISANNKVKKGADIDIVVSKG
soluble fraction (log2): 0.126

HMDPTHDMHFLVKDQVTGQPLPNMPYRLQLDNGQTLTGRTDALGMTEKISGHSPHIASIEVPY
soluble fraction (log2): 0.18

HMVSFSIDEALVSAVKGPRSANVMSIQRQFLVRLSVERDGRVTITGANSKSVQQAREAVEAAVEEAKLHP
soluble fraction (log2): -0.827

HMKSEMYIDLSNALLKMSERDKELLTYRYTMEMSSKEISQITGIKESNVNSYIRRAREKLLKIFNAMNK
soluble fraction (log2): -3.04

HMGESEWIVKWRGEKRDEERLQESELVRDDPEHRISVVRPRDDVDASAWLNRWRKSRYVQYIQPNHRVTIS
soluble fraction (log2): 0.0613

HMIKITLPDGSVKEYKKGITPAEVAQSISEGLARNVISASYNGKTIETVTPLTTDGSLVLYTWDSPEGK
soluble fraction (log2): 0.193

HMKYKKYKLLKDLPTFKAGQLAYISKTGNLIAGTPENQKTTETGLIIMIYHETTLKKFPNILTEWFEEIE
soluble fraction (log2): -2.71

HMDNNFIQSLYPIAIGISKNQLDPWDLINGWVEYYLKNKEKYINHPNLKAVAVLKMKGLLIDHFRKS
soluble fraction (log2): -3.57

HMGIVTMPGQGSKMRFDFDATGDLPSSTSWRGMFAYANNTKRAYVSTGTTMGGYNGWRQLIAMDEYGNYQT
soluble fraction (log2): -0.0345

HMLPERIQTIVALIGHGRAMDLVREFGGQEIKFPAQEGNDTWAALVEVIGEAATRKLAAVFGGGQAPPVYI
soluble fraction (log2): -0.778

HMQRDTIAISAIPTAIKTYLSSTYPTDTLVHAFVNKDQSIVVISKNIDFYATSFSTANAFIKRIQLPA
soluble fraction (log2): -1.03

HMDSDFIKIEVLFNERNRLDLKAMMEASGFTDRGQFLSIMADLTGDENWDRNLDRGDIFYLPRSFTI
soluble fraction (log2): -1.22

HMSLTYTGKFILNHNNIDQSSFNINIYLVNKQTIIQITKPFYGNVLNIKFNEENDLIISPKQFS
soluble fraction (log2): -0.146

HMSIQDLMNSKDLSGFKVEMLSNEDIVKYKSMLQSSGFSESQAEQLALQRGLPTSELIKLRTRISDVAVT
soluble fraction (log2): 0.0344

HMEPMLEIFDAKIDLADVLAVESGLVRLRGGAEVTSPRVDVDAGARLELDSGARLNVERLSY
soluble fraction (log2): 0.0258

HMTDSSEILEAALKEAEDAAHEVLNGTFSVQLEPQKAYIRRLQHMLIDRMNLSSTSKGKEPYRSLLVYR
soluble fraction (log2): -1.11

HMEPADALVAALVARGVSPSTARITVKQYPATRIQPQLEVFDYLVAQKDPKVSRNPPGFLLSAIRGEYA
soluble fraction (log2): -0.188

HMDEPGTGFKWREDVLLRVMEANGIDTSHRDDFVRHAVKFDNDDNLYLKKAEIEDAAAAWVSEHS
soluble fraction (log2): 0.0272

HMGEVEVPDLVGIEAIQAKTLLFNSDFLIKEFYDYDPTQPIGVVIRQAPEAGTTQTIGDSVTITINRA
soluble fraction (log2): -0.116

HMVKVSVYPNPAVDRITISGEVKAYAVYDATGKVVMKDTDYRGGAIGVSHLPAGIYIVRTDAGAVTVNK
soluble fraction (log2): -0.652

HMDEMEFQKYVDQNLKQKGISLTAEAKAELLLRLGGDTMLLHSAIEKLDLYGEKNLNLNDIKHLVSLNSDV
soluble fraction (log2): 0.229

HMKHTVSVDRLQPGVFVSLGGLSWLDHPFLLNRFRLTDHDQIKVLRSLGVKEIEWDPTRSTAQPLPE
soluble fraction (log2): -0.437

HMATPTEHQLQAQARAVVEKAERLLDRASADDREDIINLIEKITDALAAEDFTAVKAPLAELSDILFYLE
soluble fraction (log2): -0.418

HMLTSAQLAEIRQAVRAGQASVVEDLLKNGASPNFRMENGDTGFTYAVRADTPQVAEALLKSGKL
soluble fraction (log2): -0.0678

HMTNALDMMKTMDSDAYTKYQKISKESSNEDRQLNELKYITNWYAGAVKKNPSMVDDYEKQKEADS
soluble fraction (log2): 0.159

HMNINLNVGKRLKSIRQNKELSLDEVSNLTNVSKPALAQIERGASSPTINTLWKISKGLKVPLSYFLQE
soluble fraction (log2): -0.0405

HMGSGKGAAHTILGISADASDDEIKAAWRKLVQENHPDKLVSQGLPDEFVQAATDRLRLINTAYQSMLNRP
soluble fraction (log2): -0.0378

HMNPMRYLVVPSQETETWKEYLVSKEWLERKYRIETEGDNRAIPLSNLFPKIVPIELSNLEIIEKEAFS
soluble fraction (log2): -0.24

HMGFEALRSRHRITAREMEVLQHMLAGRSNAEIGHTLGLSERTVKTHITSIFNKLGVDSRAQLGYMLK
soluble fraction (log2): -0.498

HMKLPIEKESYRIIWDLEEESFRIRLKISENSPQEEKNILINQAIEDIENITGEPIDKSPYYVLYE
soluble fraction (log2): 0.0672

HMSGLGELTPRELEVLELMAQGLSNSQIAGRLFLSGAAVAKHVSSIFSKLGFEPGDENRRVRAILAFLNR
soluble fraction (log2): -0.422

HMSRIDRKGLTSQIVNHLSKNPGKNFTLKQFFRNLKLNTHPLKMLAVDVLNKLLDTNFITRNEDGEFFLKA
soluble fraction (log2): 0.337

HMLDKKKHLEQGRKIIEDQLAKYKIQPSFDTLKKLSAYYGLNNKEQLYAQVGMGFLELENLDEILQ
soluble fraction (log2): ≥ 0.62

HMNTIIHPIRLAYVDSGSIKSMAEQAEIDVKILTSEANSQIFWAIGDEKQIDRLYNLISQVDIIQNK
soluble fraction (log2): -0.211

HMNPLLSAYLAEVERGLQGLTAGRRRLVLRELEAHLLDEAEARGLLTEEDMRALLMEKEPPERLAQEIAQ
soluble fraction (log2): -0.0936

HMLLTHEEQIVKRGWQAPVGPFAILDSRAEAMHGDLEMLRGDREAAEQHFRRAWQIIGPIVEQ
soluble fraction (log2): -0.0656

HMSIYDAPIEDLKFSTRIFNSLKRADIHTVADLIAHSRDDLMKVRNLGATSLDELIEKLGTHGLQLADP
soluble fraction (log2): -0.254

HMTFPAILRELLEKHPQTGKRTTLKELGEAVGTRQQSISLYRNGDTQPSPDILVRIAAFFGVSVDYLL
soluble fraction (log2): -0.419

HMNLDYKQFQVFNNIETLNTFTNLLSDNKIDFEVENNSKIFDPSFANNDFEKEYIVKIHPNDFEKVY
soluble fraction (log2): 0.064

HMGSDQEAAMARQDRLSTLVDYVVERGSVHVDDIVADLGVSPATVRRDLDALAAQQLIIRTRGGATANHT
soluble fraction (log2): 0.0263

HMTYKPAADFKPSDTSSLKEGMKVEHPKFGFGTVMKMEEVGTERKARINFADFGEKTLLLSFAKLKIHEN
soluble fraction (log2): 0.0858

HMKSSTEIIYSDFLREVSNGQISEVTIQGDFVRGLFLSGSSFQTYAPKDSNLINILRDKKVRIKVHPP
soluble fraction (log2): -0.134

HMGEIHALIPGLVSRLFVKPGDRVENGQGLLILEAMKMENEIDSPISGVVGKIYIKAGDKVEKGELIMEIN
soluble fraction (log2): -0.46

HMRPTAWEQVSRHIDQHGSIGNTEVRKAMETENVLAASKQIKKWLEQGLLIILNPTAGTRARRYSKPNM
soluble fraction (log2): -0.287

HMDLHERISSVLLGTGKSNDELAQILGVNKNTISAYKNKHGDLKGIVLEGIVKHFDINPVWLLTGSGTR
soluble fraction (log2): -0.54

HMNEWVSVEERLPTDERPVLAFIGYADTMNGFITTSYYFRFDPDPHWLGEGLIPVGLKTLFWMPLPAP
soluble fraction (log2): -0.0149

HMGTHVVQEGEYLDLIIEKTIPGSPIRKDLLRKAFVKLNPSAFGGRGNPNYIFARKKLKVPSVEDLKAVIF
soluble fraction (log2): -0.0708

HMPILRDEVYLSIKEAILTGELAPGERISIGRLLPQIGFSPTPIREALLKLEQEGFVSRLQRGGFIVSR
soluble fraction (log2): -0.991

HMLDKIRTYIDNSFTGVNETKKVKELKDELFENLKEKYNDQIQDGKTEQEAYNSVISGIGDLSELIESVK
soluble fraction (log2): 0.553

HMQVPFGFQRNPSTGTLEEKAEEQLIINQVLSLKNSGIGVSEISKRLGELSVSRIYRIINTAKKNAS
soluble fraction (log2): -0.366

HMPPPTLVESAYNHLKADIISSYLKPDEKINLKDLSQRYQVSETPIKQALNRLISEGLIISVPRKGMWVH
soluble fraction (log2): -0.0852

HMSGPFTELTPREREILSHLAEGQSNKVIARHLQISDGTVKLHVKAILRKLEVHSRVEAAVMAVEHGV
soluble fraction (log2): -1.96

HMRDSYTFEDIEKLKDSYLQDSEKALEKLISIYEDTNQSLAIRTAALDIITDSQDPTFKLALEKIIS
soluble fraction (log2): 0.0263

HMFLTSDEGKIMQLLEDKQRITRKDAQELLGVSQSTAGRILKTLVDNGQITQRGGGRTTRYELIK
soluble fraction (log2): 0.184

HMYYNQGILKSGASVYGEPGITSSHRLEIPSGSFVDIVQEKDEWVYYEKNHVNHGWVLRENIYIPSL
soluble fraction (log2): 0.0681

HMAHLNYQTVDINALIRHSLQLVSQDAQSRGIALQFTPRPELTTISADPDRLNQVLLNLYLNAMQD
soluble fraction (log2): -0.334

HMGKPAGLIRELGNHPEDEKPVTLNNGRFGPYVKHGKVMASLTKADSPDDITFDRAIELIAIKAEKMAAKG
soluble fraction (log2): 0.184

HMSEVSEILTRARFFAGVKTDAELSTLLKIPYGTLIGWKTRKNIPESRIAQMALILGIRRDTLIPA
soluble fraction (log2): -1.71

HMNETLKQIRINALQYSEKDMATKLGLPLSEYKEIENDKPLNFTLLIRLSQAVGKTIDDLLNAQ
soluble fraction (log2): 0.0115

HMLIIDLPDFTNKKLSELQQWADANQITLKIVEKDVSSKPYDTILEQTPAKNKYEKIVKGSTMTVTVNIK
soluble fraction (log2): -0.562

HMTQLPEVPVERGMVLEEVQSGWVGAVTRVEKSGGMHVVALEDRRGKSRSFRLGFGFLLEGQPIRLMPPAP
soluble fraction (log2): -1.42

HMPPGQIVNEALQRAGNSTPTGTAISAQDDIKLYTSALAELATQGDTSSASVAKLREALQTAQVAFYNAV
soluble fraction (log2): 0.0769

HMSSDDEAFKRELVGLIPHLRAFARTLTGDPTAADDLAQDAMMKAWDARASYQMGTNMKAWTFMILRNQFY
soluble fraction (log2): -2.22

HMTDDALIGKTAQVTVAIKPGSVGQITARVGDERVERLARASADAEIAAGSLVTIKSIAGDSVIVAPE
soluble fraction (log2): 0.144
